Source: the supplement of paper PMC10724198
± gives the standard deviation of the averaged measurements.
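Also: PSI is a weighted mean of sequencing reads over stability bins, variants kept only with over 10 reads, mCherry proximal and sfGFP distal, peptide attached via GGGS linker.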

What follows are sequences tested on Saccharomyces cerevisiae (assay: protein stability index of tFT-peptide fusion (C-terminal peptide) (PSI (0-1 scale)); higher = more stable (slower turnover)). Details: genetic background: wild type; temperature: 30 C.
Sequence RGSPCPQRAALH has a protein stability index of 0.7 ± 0.035.
Work on RGSQRVVVSLGW yielded a protein stability index of 0.726 ± 0.0073.
For RGVGFMGEGVTW, the protein stability index was 0.656 ± 0.069.
For RGVGGAPVWPFV, the protein stability index was 0.765 ± 0.0093.
RGVLVTVNWVSG showed a protein stability index of 0.499 ± 0.038.
In the case of RGVREVGSAELV, the protein stability index is reported as 0.731 ± 0.022.
Work on RGVVRYVNGSRG yielded a protein stability index of 0.568 ± 0.083.
RGYVSLSEGVAA showed a protein stability index of 0.676 ± 0.058.
For RHAMNPNTSRVL, the protein stability index was 0.601 ± 0.042.
Sequence RHGDRLEHPIPV has a protein stability index of 0.611 ± 0.031.
Sequence RHLESERAPLPG has a protein stability index of 0.688 ± 0.018.
RHPEVGAATDGC showed a protein stability index of 0.708 ± 0.068.
RHSAQRPRARHP showed a protein stability index of 0.79 ± 0.032.
RICRWGSRAVVG showed a protein stability index of 0.685 ± 0.015.
For RIETHNQKSPGL, the protein stability index was 0.737 ± 0.0023.
RIGRHLATSRRV gave a protein stability index of 0.679 ± 0.0089.
RIHQRTSLHKAH showed a protein stability index of 0.609 ± 0.13.
For RIKKKKNKARDI, the protein stability index was 0.734 ± 0.035.
RIKNMNNNEEKR showed a protein stability index of 0.714 ± 0.2.
RIKTRDVSGNYC gave a protein stability index of 0.708 ± 0.026.
RILFGALYSSCK showed a protein stability index of 0.6782 ± 0.0062.
RILPPPPPPSSR gave a protein stability index of 0.754 ± 0.026.
With RIPHRTRLARPT the protein stability index was 0.6716 ± 0.0064.
In the case of RIRPPPAPPPPP, the protein stability index is reported as 0.569 ± 0.019.
RITKKRQQIKKR gave a protein stability index of 0.7482 ± 0.0028.
In the case of RIVLGCSVVLRG, the protein stability index is reported as 0.615 ± 0.012.
With RIVLLICPYPVL the protein stability index was 0.554 ± 0.056.
RIWEVQFRRLSE showed a protein stability index of 0.823 ± 0.074.
RKEETINKESRR showed a protein stability index of 0.742 ± 0.032.
Work on RKEGRRGRRGAK yielded a protein stability index of 0.691 ± 0.069.
For RKETQKIRKKRI, the protein stability index was 0.679 ± 0.03.
With RKGEASRVRWSE the protein stability index was 0.668 ± 0.061.
Sequence RKGRVLIMTYRK has a protein stability index of 0.682 ± 0.051.
RKGSVVILGLGL was tested, and the protein stability index was 0.65248 ± 0.0003.
In the case of RKKFKKQKKKNI, the protein stability index is reported as 0.703 ± 0.073.
Work on RKKGGNSKKGKN yielded a protein stability index of 0.774 ± 0.12.
RKKHKYNKKNGQ gave a protein stability index of 0.666 ± 0.07.
Work on RKKREKKGRRGK yielded a protein stability index of 0.668 ± 0.0068.
Sequence RKKRNKDARQQN has a protein stability index of 0.679 ± 0.057.
RKLAEVNCTVKV gave a protein stability index of 0.664 ± 0.036.
For RKRASHALTPPC, the protein stability index was 0.732 ± 0.024.
Sequence RKRVKRTIYESK has a protein stability index of 0.635 ± 0.1.
For RKSPRDTGLQRA, the protein stability index was 0.706 ± 0.19.
For RKTPAITSNIQI, the protein stability index was 0.722 ± 0.027.
Work on RKTPIKTKKSAR yielded a protein stability index of 0.687 ± 0.09.
RLEERTNIKKIK showed a protein stability index of 0.699 ± 0.045.
RLELRVPPSFAH gave a protein stability index of 0.715 ± 0.0095.
Sequence RLFSPLRPLSPP has a protein stability index of 0.668 ± 0.032.
In the case of RLFSSSCLPFPP, the protein stability index is reported as 0.781 ± 0.16.
RLGAELGQLRCC gave a protein stability index of 0.66 ± 0.04.
For RLGGSLQRGKVV, the protein stability index was 0.734 ± 0.088.
For RLGNVGVGVGVG, the protein stability index was 0.616 ± 0.039.
With RLGRSEVREYAW the protein stability index was 0.716 ± 0.024.
Work on RLHPPRPLTPPL yielded a protein stability index of 0.683 ± 0.0087.
For RLKFCLSICLAP, the protein stability index was 0.7321 ± 0.003.
RLKKKKKEIKRR was tested, and the protein stability index was 0.721 ± 0.011.
For RLLHLMCFCSGP, the protein stability index was 0.644 ± 0.031.
Sequence RLLPCATPHPDL has a protein stability index of 0.647 ± 0.015.
RLLPVTISSSLS was tested, and the protein stability index was 0.702 ± 0.031.
For RLLYGIYDHGRQ, the protein stability index was 0.731 ± 0.091.
Work on RLMKQKKMKRRK yielded a protein stability index of 0.724 ± 0.025.
Work on RLPCPLRSRALS yielded a protein stability index of 0.626 ± 0.03.
RLPHPPARVFSI was tested, and the protein stability index was 0.691 ± 0.011.
With RLPPLFPPPPPC the protein stability index was 0.709 ± 0.038.
RLPPPPPPSPHL gave a protein stability index of 0.711 ± 0.054.
For RLPVRSGAMHGC, the protein stability index was 0.665 ± 0.011.
RLSGHLRLGRLG gave a protein stability index of 0.672 ± 0.086.
For RLSSCSAPFPLL, the protein stability index was 0.7194 ± 0.0068.
For RLTDPHWALIQS, the protein stability index was 0.839 ± 0.2.
In the case of RLTKKKKEIKRR, the protein stability index is reported as 0.717 ± 0.014.
Sequence RLTLTAKDNEGC has a protein stability index of 0.733 ± 0.1.
With RLVDCDLTDKWH the protein stability index was 0.696 ± 0.018.
In the case of RLVSIHDTRESL, the protein stability index is reported as 0.727 ± 0.012.
RLVSPVLPLSRL was tested, and the protein stability index was 0.728 ± 0.031.
RLYPVPARPSPS was tested, and the protein stability index was 0.629 ± 0.046.
For RMEPPLCIISPK, the protein stability index was 0.6605 ± 0.0065.
RNKKKKEKKKVE gave a protein stability index of 0.693 ± 0.038.
Work on RNLCHILRHERT yielded a protein stability index of 0.708 ± 0.088.
For RNQTRKTTQKPR, the protein stability index was 0.661 ± 0.01.
RNRVVPITARLT was tested, and the protein stability index was 0.545 ± 0.014.
RNTIKMKENKRI showed a protein stability index of 0.643 ± 0.042.
Sequence RNTKGIIKKKKE has a protein stability index of 0.702 ± 0.042.
Work on RNYEGTKIEEQE yielded a protein stability index of 0.7219 ± 0.0047.
In the case of RNYEKRSIIVCK, the protein stability index is reported as 0.497 ± 0.031.
For RNYIVLYYDEGD, the protein stability index was 0.673 ± 0.074.
RPAESPPAFYNR was tested, and the protein stability index was 0.774 ± 0.062.
Sequence RPAGGPSGGEGV has a protein stability index of 0.689 ± 0.074.
Sequence RPDTGPPRRNRE has a protein stability index of 0.715 ± 0.031.
In the case of RPFVSSAGSQFP, the protein stability index is reported as 0.808 ± 0.046.
With RPFYPLVRPRTR the protein stability index was 0.798 ± 0.2.
Work on RPGAFDNGLTLP yielded a protein stability index of 0.682 ± 0.055.
For RPGGRLLVWVGG, the protein stability index was 0.55 ± 0.038.
RPGPGHYRSIIL was tested, and the protein stability index was 0.669 ± 0.11.
Sequence RPHPQRANAPGH has a protein stability index of 0.69373 ± 9.2e-06.
Work on RPHTSPPPRHLY yielded a protein stability index of 0.61 ± 0.016.
RPPAPVFPNFPG gave a protein stability index of 0.708 ± 0.022.
In the case of RPPAVVHLQPFY, the protein stability index is reported as 0.7016 ± 0.0064.
In the case of RPPFPPLPLPPP, the protein stability index is reported as 0.674 ± 0.088.
Work on RPPGLIDSTIQP yielded a protein stability index of 0.602 ± 0.034.
With RPPLLSPSPPPP the protein stability index was 0.649 ± 0.014.
Sequence RPPLSSPPPPPP has a protein stability index of 0.701 ± 0.017.
Work on RPPPLLPARLSL yielded a protein stability index of 0.727 ± 0.028.
Work on RPPRPAATGVQH yielded a protein stability index of 0.683 ± 0.018.
Sequence RPPSLCSYSICV has a protein stability index of 0.585 ± 0.0092.
For RPRKPGLACKHL, the protein stability index was 0.652 ± 0.034.
RPSPPLLLPPAP gave a protein stability index of 0.71822 ± 0.00068.
Sequence RPSTVPGHGSDT has a protein stability index of 0.677 ± 0.011.
Work on RPSYRFFVRCSP yielded a protein stability index of 0.762 ± 0.053.
RPTSTHQPASPS was tested, and the protein stability index was 0.684 ± 0.025.
Sequence RPVVASRQASHS has a protein stability index of 0.703 ± 0.021.
With RQEFSGAPPHLI the protein stability index was 0.697 ± 0.029.
RQFRVVGCVCQP gave a protein stability index of 0.686 ± 0.037.
RQHYFDVLGEMY gave a protein stability index of 0.7113 ± 0.0027.
RQLLAVAELLTF showed a protein stability index of 0.677 ± 0.086.
RQRLGLRIIIPS gave a protein stability index of 0.624 ± 0.017.
With RQRWLSELSKAL the protein stability index was 0.712 ± 0.083.
RQSGSDFYGRSY was tested, and the protein stability index was 0.663 ± 0.032.
For RQYARKKKKVRN, the protein stability index was 0.683 ± 0.025.
In the case of RRADGASLNNSV, the protein stability index is reported as 0.697 ± 0.028.
With RRAHATLPMNEF the protein stability index was 0.616 ± 0.015.
RRAPTTATPARP was tested, and the protein stability index was 0.826 ± 0.14.
With RRASTVRVPTCW the protein stability index was 0.701 ± 0.019.
RRCDKTMSEGFF gave a protein stability index of 0.692 ± 0.078.
In the case of RRCGTERVKARE, the protein stability index is reported as 0.766 ± 0.023.
RRGYSNCMTLWI gave a protein stability index of 0.702 ± 0.049.
RRHLSLCLLPSL showed a protein stability index of 0.685 ± 0.011.
In the case of RRKTKTYRSWME, the protein stability index is reported as 0.649 ± 0.035.
Sequence RRLANMIFFLGG has a protein stability index of 0.69 ± 0.042.
With RRLDGDLSPPIR the protein stability index was 0.664 ± 0.095.
RRLGCDFDTYKK showed a protein stability index of 0.718 ± 0.043.
With RRLPPSRSAPFP the protein stability index was 0.698 ± 0.028.
RRLQGKWIWQNH showed a protein stability index of 0.731 ± 0.055.
Work on RRMIKNVRRHKV yielded a protein stability index of 0.661 ± 0.075.
Sequence RRPPALDSLRHY has a protein stability index of 0.661 ± 0.011.
With RRRENAKENEIK the protein stability index was 0.812 ± 0.13.
With RRRGEGRREKDR the protein stability index was 0.677 ± 0.12.
RRRREKEKRSQE was tested, and the protein stability index was 0.734 ± 0.14.
RRRSAFRLIKEK was tested, and the protein stability index was 0.677 ± 0.045.
Sequence RRTEGKECEGEE has a protein stability index of 0.707 ± 0.064.
With RRTRRATKAKKR the protein stability index was 0.682 ± 0.058.
Sequence RRTTTDSPRADR has a protein stability index of 0.708 ± 0.047.
Sequence RRVMGRLKNQIK has a protein stability index of 0.6672 ± 0.0065.
RRWIFGEGMSTY gave a protein stability index of 0.723 ± 0.058.
RRWWDHGCSGAG was tested, and the protein stability index was 0.672 ± 0.061.
In the case of RRYLREEDVQEK, the protein stability index is reported as 0.696 ± 0.049.
For RSAPPPPPLRLD, the protein stability index was 0.789 ± 0.062.
